Patent US20050059089A1 (priority 2003, published 2005)
Where two headings read alike, the source gives them in different places.

Legend:
[1] = tested on: HEK293 cells transfected by Gα16 alone; assay: Ca2+ mobilization assay, HEK293 cells transfected by Gα16 alone; assay type: cell-based, human; conditions: cells expressing Gα16 alone (no receptor)
Protocol: Human embryonic kidney (HEK) 293 cells were transfected with GPCR135,.GPCR142 or co-transfected with Gqi5 (Conklin et al. (1993), Nature 363, 274-280) or Gα16 (Amatruda et al. (1991), Proc. Natl. Acad. Sci. U.S.A. 88, 5587-5591) expressing plasmids using LipofectAmine. Two days after transfection, cells were detached with PBS plus 10 mM EDTA. The detached cells were washed with DMEM-F12 medium (without phenol red, Invitrogen) and seeded in black poly-D lysine coated 96-well plates (BD Biosciences, San Jose, Calif.) at a cell density of 50,000 cell/well.

GPCR135 [2] = biological target: T1, GPCR135 (Homo sapiens, UniProt Q9NSD7); assay: Radioligand competition binding with 125I-relaxin3, COS-7 cell membranes; set-up: expressed in transfected cells; host or cells: COS-7 (membranes); conditions: COS-7 membranes, 100 pM radioligand
T1 sequence (Q9NSD7 1-469): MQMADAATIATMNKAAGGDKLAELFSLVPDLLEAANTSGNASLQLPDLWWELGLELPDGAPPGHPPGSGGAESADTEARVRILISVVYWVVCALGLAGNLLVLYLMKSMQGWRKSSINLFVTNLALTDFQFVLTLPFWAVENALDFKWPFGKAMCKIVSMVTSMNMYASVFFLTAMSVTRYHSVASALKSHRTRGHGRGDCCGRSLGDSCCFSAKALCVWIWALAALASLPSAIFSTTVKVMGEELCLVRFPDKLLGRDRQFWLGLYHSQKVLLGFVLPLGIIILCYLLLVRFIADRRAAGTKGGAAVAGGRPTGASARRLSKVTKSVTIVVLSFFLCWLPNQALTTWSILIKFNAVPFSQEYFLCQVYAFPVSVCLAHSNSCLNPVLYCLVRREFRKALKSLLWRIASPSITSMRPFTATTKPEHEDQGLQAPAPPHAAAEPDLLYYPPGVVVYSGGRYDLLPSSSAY
Protocol: Cell membranes from COS-7 cells transiently expressing GPCR142 were incubated with ^125I-relaxin3 either in the presence or absence of various concentrations of different competitors in 96-well plates at a final volume of 200 μL in binding buffer: 50 mM Tris-HCl (pH 7.4), 2 mM EDTA plus 0.5% BSA. The binding mixtures were incubated at room temperature for 1 h and then were filtered through 96-well GFC plates (Packard) and washed with ice-cold washing buffer: 50 mM Tris-HCl, pH 7.4. Fifty microliters of Microscint-40 were added to each well and the plates were counted in a Topcounter NTX (Packard). The radioligand binding results were analyzed using GraphPad PRISM software.
This binding assay was also performed using GPCR135.
To characterize INSL5 as the possible ligand for GPCR135 and GPCR142, cell membranes from COS-7 cells transiently expressing human GPCR135 or GPCR142 were used in the radioligand binding assays using [^125I)-relaxin3 as the radioligand as described by Liu et al. (2003a, 2003b). […] The binding assays were performed at room temperature for an incubation time of one hour. The binding mixtures were then filtered through GFC filters pre-saturated with 0.3 polyethylenimine (Sigma) and washed with cold binding buffer. The bound radioligand was counted in a top counter (TopCount/NTX, Packard) with Microscint-40. The results were analyzed by Prism 3.0 software.

GPCR135 [3] = biological target: T1, GPCR135; assay: GTPγS binding assay, GPCR135 expression membranes; assay type: biochemical; set-up: expressed in transfected cells; host or cells: CHO membranes (GTPγS); HEK293 with Gα16 or Gqi5 (Ca2+)
Protocol: (§1) The GPCR142 expression vector described above was transfected into CHO cells using Lipofectamine (Invitrogen) according to the manufacturer's instructions. Two days after transfection, the cells were harvested and the cell membranes were prepared by homogenizing the cells in cold 50 mM Tris-HCl, 5 mM EDTA, pH 7.5 followed by centrifugation at 4° C. 1000 g for 10 min. The supernatant was centrifuged at 4° C. 20,000 g for 30 min and the pellet was re-suspended in GTPγS binding buffer: 50 mM Tris-HCl, pH 7.4, 10 mM MgCl2, 1 mM EDTA, pH 8.0, and 100 mM NaCl using a polytron tissue homogenizer. Protease inhibitors were added to the buffer at concentrations of 1 mM PMSF, 10 μg/ml of pepstatin A, 10 μg/ml of leupeptin. Cell membranes and different concentrations of ligands were added to 96-well plates and incubated at room temperature for 20 min. ^35S-GTPγS (NEN) was then added to each well at a final concentration of […] in a final volume of 200 μL. The reactions were allowed to proceed at room temperature for 1 h, and then the mixtures were filtered though a 96-well GFC filter plate (Packard) and washed with cold washing buffer: 50 mM Tris-HCl, pH 7.4, 10 mM MgCl2. Fifty microliters of Microscint-40 (Packard) was added to each well and the plate was counted on a top counter (TopCount NTX, Packard).
The same assay was performed as described above, except using GPCR135 in place of GPCR142.

GPCR142 = GPCR142 (Homo sapiens, UniProt Q8TDU9, L329S); assay: GTPγS binding assay, GPCR142 expressing cell membranes; assay type: biochemical; set-up: The complete coding region of human GPCR142 was PCR-amplified from human genomic DNA; expressed in transfected cells; CHO membranes (GTPγS); HEK293 co-transfected with Gα16 (Ca2+)
Chain of GPCR142 (Q8TDU9 whole entry L329S): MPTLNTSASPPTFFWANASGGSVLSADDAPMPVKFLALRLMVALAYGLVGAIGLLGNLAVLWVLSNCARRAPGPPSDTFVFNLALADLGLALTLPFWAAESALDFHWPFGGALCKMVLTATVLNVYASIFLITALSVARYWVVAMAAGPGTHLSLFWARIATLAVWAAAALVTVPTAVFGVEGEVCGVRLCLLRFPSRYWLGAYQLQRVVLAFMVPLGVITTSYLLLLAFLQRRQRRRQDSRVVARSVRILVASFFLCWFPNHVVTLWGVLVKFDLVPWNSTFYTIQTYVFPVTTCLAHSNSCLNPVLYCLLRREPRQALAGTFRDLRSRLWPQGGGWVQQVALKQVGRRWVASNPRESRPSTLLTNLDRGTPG
Protocol: as §1

GPCR135 [4] = biological target: T1, GPCR135; assay: Ca2+ mobilization assay, HEK293 cells co-expressing GPCR135 and Gα16; assay type: cell-based; set-up: expressed in transfected cells; host or cells: HEK293 with Gα16 or Gqi5 (Ca2+)

In the case of “relaxin3: Human relaxin3 (SEQ ID NO: 6), produced recombinantly; mature peptide of A- and B-chain linked by disulfide bridges”, the “stimulation of Ca2+ mobilization” value [1] is reported as “did not respond”, the “displacement of 125I-relaxin3 binding to GPCR135” value (GPCR135 [2]) is reported as “specifically displaced” and the “stimulation of GTPγS binding” value (GPCR135 [3]) is reported as “stimulated GTPγS binding”. The “stimulation of 35S-GTPγS binding (agonist activity)” value (GPCR142) was “stimulate”, the “stimulation of 35S-GTPγS binding (agonist activity)” value (GPCR142; listed as human recombinant relaxin3) was “stimulated GTPγS binding” and the “stimulation of Ca2+ mobilization” value (GPCR135 [4]) was “stimulated Ca2+ mobilization”. For the same substance, the “stimulation of Ca2+ mobilization” value (GPCR135 [4]; listed as Relaxin3) was “stimulated Ca^2+ mobilization”.
